Laboratory results from PMC4196864.

Target: paclitaxel-stabilized microtubules assembled from purified porcine brain tubulin (porcine) (UniProt P02550)
Experiment: co-sedimentation

- fold lower band intensity in MT pellets than the T758A/T762A mutant: 1.4 fold
Substance: 6xHis/mCherry-tagged XMAP4 phosphomimetic mutant (T758E/T762E) (natural protein)
